# Test results: US9359418B2, “Inhibitors of the T cell-specific alternative p38 activation pathway and methods of use” (The United States of America, as represented by the …, priority 2012, dated 2016)
# No end group written: not given here.
# Target: recombinant p38α (Homo sapiens, UniProt Q16539)
# Assay: GST pull-down of recombinant p38α by truncated Gadd45α portions
# Format: binding
# Conditions: Gadd45α portions fused to GST, in vitro
# Description: This example describes a Gadd45α 71-85 polypeptide fused to a cell-penetrating peptide (11R) and its ability to block the T cell-specific alternative p38 activation pathway. The minimal region of Gadd45α capable of binding to p38 was identified by fusing various truncated portions of Gadd45α to GST and using the product to pull down recombinant p38α in vitro.
# recombinant p38α, sequence (Q16539 whole entry, the tested form may be a part): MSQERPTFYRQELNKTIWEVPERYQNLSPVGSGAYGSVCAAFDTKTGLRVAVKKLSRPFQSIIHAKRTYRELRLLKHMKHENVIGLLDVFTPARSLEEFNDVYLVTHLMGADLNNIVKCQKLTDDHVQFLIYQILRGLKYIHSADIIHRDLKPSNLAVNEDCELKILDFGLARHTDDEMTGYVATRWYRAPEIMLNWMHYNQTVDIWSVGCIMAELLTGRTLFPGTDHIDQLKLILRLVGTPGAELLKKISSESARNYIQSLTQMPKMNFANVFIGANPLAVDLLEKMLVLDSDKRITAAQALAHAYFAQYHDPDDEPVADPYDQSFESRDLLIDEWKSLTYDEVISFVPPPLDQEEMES
substance,measurement,value
"71-85 fragment: residues 71-85 of Gadd45α fused to GST, used to pull down recombinant p38α (LQIHFTLIQAFCCEN; cysteine pairing not given here; also: fused to GST; UniProt P24522 71-85, looked up, fragment)",pull down of recombinant p38α,pulled down p38α as well as the full length protein
